From patent US20240425593A1 (SICHUAN KELUN BIOTECH BIOPHARMACEUTICAL, published 2024)
Read-outs that look alike come from different tables or passages of the source.

T1: human ICOS (human, UniProt Q9Y6W8 21-140, limits assumed)
T1 construct: Bought
T1 sequence (looked up): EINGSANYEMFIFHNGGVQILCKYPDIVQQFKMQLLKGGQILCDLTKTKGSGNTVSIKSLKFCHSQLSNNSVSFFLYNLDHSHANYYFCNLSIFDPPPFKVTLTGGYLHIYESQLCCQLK

T2: monkey PD-1-hFc (monkey)
T2 construct: Extracellular domain of monkey PD-1 fused to an hFc tag, made in house; not shown: The hFc tag and any linker
T2 chain: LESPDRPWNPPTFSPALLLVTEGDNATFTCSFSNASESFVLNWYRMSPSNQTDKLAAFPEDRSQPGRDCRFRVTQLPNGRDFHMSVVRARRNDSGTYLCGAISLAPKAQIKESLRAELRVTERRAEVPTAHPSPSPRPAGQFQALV


Experiments:
human BTLA-his = target: T3, human BTLA-his (human, UniProt Q7Z6A9 31-157, limits assumed); experiment: ELISA on coated human BTLA-his, HRP goat anti-human IgG detection
T3 construct: Bought; not shown: His tag
Method: (§1) After washing, a goat anti-human IgG secondary antibody labeled with horseradish peroxidase diluted in phosphate buffer (PBS) containing 2% BSA in a ratio of 1:15000 was added, followed by incubating at 37° C. for 1 hour. After washing, the TMB chromogen solution was used for developing, and the absorbance value was read using a microplate reader at 450 nm. The data were imported into Graphprism to calculate EC₅₀ values.

[1] = target: T4, full-length human PD-1 on CHO-hPD-1 cells (human, UniProt Q15116 25-288); experiment: flow cytometry on CHO-hPD-1 cells with FITC-labeled antibody
T4 construct: whole, on cells; also called PD-1 on the cell membrane surface of CHO-hPD-1

[2] = target: T4, full-length human PD-1 on CHO-hPD-1 …; experiment: competitive flow cytometry on CHO-hPD-1 cells; blocked ligand PD-L1 (PD-L1-mFc-Bio)
Description: (§2) The data were imported into Graphprism to calculate IC₅₀ values.

human PD-1-ECD-mFc = target: T5, human PD-1-ECD-mFc (human; mouse, UniProt Q15116 25-170); experiment: ELISA, coated human PD-1-mFc
T5 construct: extracellular domain; Made in HEK293F cells; also called human PD-1-mFc; PD-1-mFc; not shown: mouse Fc (mFc) amino acids, AB097847.1

human PD-L1-his = target: T6, human PD-L1-his (human, UniProt Q9NZQ7 19-239, limits assumed); experiment: ELISA on coated human PD-L1-his, HRP goat anti-human IgG detection
T6 construct: Bought; not shown: His tag
Method: as §1

human ICOS = target: T1, human ICOS; experiment: ELISA, coated antigen 1 µg/mL
Method: as §1

[3] = target: T4, full-length human PD-1 on CHO-hPD-1 …; experiment: competitive FACS on CHO-hPD-1 cells, competitor PD-L1-mFc-Bio
Description: as §2

FcRn protein = target: T7, FcRn protein (UniProt P55899 24-297; P61769 21-119); experiment: BLI (Octet ForteBio), FcRn on SA biosensor, antibody in PBST pH6.0
T7 construct: Immobilised on an SA biosensor
Description: The antibody Fc can bind to FcRn so that it cannot be easily cleared in vivo, thus prolonging the half-life in vivo.

CD64 protein [4] = target: T8, CD64 protein (UniProt P12314 16-288, limits assumed); experiment: BLI (Octet ForteBio), CD64 immobilised on an SA biosensor, antibody in solution
T8 construct: also called FcγRI

human PD-1-His = target: T9, human PD-1-His (human, UniProt Q15116 25-170); experiment: BLI (Octet ForteBio), antibody on ProA biosensor, PD-1-His in solution
T9 construct: extracellular domain; not shown: His tag

[5] = target: PD-1 on Jurkat-PD-1-NFAT cells (UniProt Q15116 25-288, limits assumed); experiment: cell-based or functional assay
monkey PD-1-hFc [6] = target: T2, monkey PD-1-hFc; experiment: ELISA, coated monkey PD-1-hFc
Method: (§3) The specific experimental steps were as follows: human PD-1-hFc and monkey PD-1-hFc antigens were diluted to 1 μg/mL with CBS solution, then coated on a 96-well ELISA plate (purchased from Guangzhou Jiete Bio) at 4° C. overnight. […] After washing, a goat anti-human secondary antibody (FC) labeled with horseradish peroxidase diluted in phosphate buffer (PBS) containing 2% BSA in a ratio of 1:15000 was added, followed by incubating at 37° C. for 1 hour. After washing, the TMB chromogen solution was used for developing, and the absorbance value was read using a microplate reader at 450 nm, and the data were imported into Graphprism to calculate EC₅₀ values.

[7] = target: T4, full-length human PD-1 on CHO-hPD-1 …; experiment: flow cytometry, FITC-labelled antibody on CHO-hPD-1 cells
human PD-1-hFc [8] = target: T10, human PD-1-hFc (human, UniProt Q15116 25-170); experiment: ELISA, coated human PD-1-hFc
T10 construct: extracellular domain; Extracellular domain of human PD-1 fused to an hFc tag, made in house; not shown: hFc tag
Method: (§4) In order to verify the binding affinity of murine anti-PD-1 antibody to human PD-1-hFc and monkey PD-1-hFc, ELISA was used. The specific experimental steps are as follows: human PD-1-hFc and monkey PD-1-hFc were diluted to 1 μg/mL with CBS solution, and then coated on a 96-well ELISA plate (purchased from Guangzhou Jiete Bio) at 4° C. overnight. […] After washing, a goat anti-mouse secondary antibody (FC) labeled with horseradish peroxidase diluted in phosphate buffer (PBS) containing 2% BSA in a ratio of 1:15000 was added, followed by incubating at 37° C. for 1 hour. After washing, the TMB chromogen solution was used for developing, and the absorbance value was read using a microplate reader at 450 nm. The data were imported into Graphprism to calculate the EC₅₀ value.

human PD-1-hFc [9] = target: T10, human PD-1-hFc; experiment: competitive ELISA, coated human PD-1-hFc, competitor biotinylated PD-L1-mFc
Method: as §3, with “human” for “human PD-1-hFc and monkey”, “streptavidin” for “a goat anti-human secondary antibody (FC)”, “room temperature” for “37° C.”, “the IC₅₀ value.” for “EC₅₀ values.”

monkey PD-1-hFc [10] = target: T2, monkey PD-1-hFc; experiment: ELISA, coated monkey PD-1-hFc
Method: as §4

[11] = target: T4, full-length human PD-1 on CHO-hPD-1 …; experiment: flow cytometry on CHO-hPD-1 cells, FITC anti-mouse IgG secondary antibody
Description: (§5) In order to verify the binding of anti-human PD-1 murine antibody to PD-1 on the cell membrane surface, FACS technology was used to detect the affinity between murine antibodies and CHO-hPD-1 cells.

[12] = target: T4, full-length human PD-1 on CHO-hPD-1 …; experiment: flow cytometry on CHO-hPD-1 cells
Description: as §5

CD64 protein [13] = target: T8, CD64 protein; experiment: BLI (Octet ForteBio), CD64 immobilised on an SA biosensor, antibody in solution; remark: listed apart in the source

Binder | binding result (human BTLA-his) | EC50 (read off the curve) [1] [ng/mL] | IC50 (read off the curve) [2] [ng/mL] | EC50 (human PD-1-ECD-mFc) [nM] | binding result (human PD-L1-his) | IC50 [3] [ng/mL] | Kd (FcRn protein) [nM] | koff (FcRn protein) [s⁻¹] | kon (FcRn protein) [M⁻¹ s⁻¹] | Kd (human PD-1-His) [nM] | koff (human PD-1-His) [s⁻¹] | kon (human PD-1-His) [M⁻¹ s⁻¹] | EC50 by the PD-1/PD-L1 luciferase reporter system [5] [nM] | EC50 (monkey PD-1-hFc [6]) [nM] | EC50 [7] [nM] | EC50 (human PD-1-hFc [8]) [nM] | IC50 (human PD-1-hFc [9]) [nM] | EC50 (monkey PD-1-hFc [10]) [nM] | EC50 (read off the curve) [11] [nM] | binding result (human ICOS) | also measured
murine antibody 29C6 (antibody, V domains shown, Murine antibody from a hybridoma; also called murine PD-1 antibody 29C6) VH: QVQLEESGPELVKPGASVKISCKTSGYTFTEYTIYWVKQSHGKSLEWIGGINPKNGATLYNQKFKVKATLTVDKSSSTAYMELRSLTSEDSAVYYCVRDYHGNSHDSMDYWGQGTSVTVSS VL: QIVLTQSPAIMSASPGEKVTITCSASSSVSYMHWFRQKPGTSPKLWIYYTSNLASGVPAHFSGSGSGTSYSLTISRMEAEDAATYYCQQRSDYPPTFGGGTKLEIK |  |  |  |  |  |  |  |  |  |  |  |  |  |  |  | 0.0355 | 2.93 | 0.0344 | ~3 |  | EC50 [12]: 3.12 nM
murine antibody 42G1 (antibody, V domains shown, Murine antibody from a hybridoma; also called murine PD-1 antibody 42G1) VH: QVQLKESGAELAKPGASVKMSCEASGYALTSYWMHWVKQGPGQGLEWIGYIHPSTGYTEYNQIFEDKATLSADKSSNTAYMQLTSLTSDDSAVYYCARGAGPYYFDYWGQGTTLTVSS VL: DIQLTQSPSSLAVSAGEKVIMSCKSSQSLLNSGTRKNYLAWYQQKPGQSPKLLIFWASTRESGVPDRFTGSGSGTDFTLTISSFQAEDLAVYYCKQSYDLITFGPGTKLEIK |  |  |  |  |  |  |  |  |  |  |  |  |  |  |  | 0.0513 | 4.5 | 0.0595 | ~7 |  | EC50 [12]: 6.62 nM

Second part, led by results:

binding result (human BTLA-his) | EC50 (read off the curve) [1] [ng/mL] | IC50 (read off the curve) [2] [ng/mL] | EC50 (human PD-1-ECD-mFc) [nM] | binding result (human PD-L1-his) | IC50 [3] [ng/mL] | Kd (FcRn protein) [nM] | koff (FcRn protein) [s⁻¹] | kon (FcRn protein) [M⁻¹ s⁻¹] | Kd (human PD-1-His) [nM] | koff (human PD-1-His) [s⁻¹] | kon (human PD-1-His) [M⁻¹ s⁻¹] | EC50 by the PD-1/PD-L1 luciferase reporter system [5] [nM] | EC50 (monkey PD-1-hFc [6]) [nM] | EC50 [7] [nM] | EC50 (human PD-1-hFc [8]) [nM] | IC50 (human PD-1-hFc [9]) [nM] | EC50 (monkey PD-1-hFc [10]) [nM] | EC50 (read off the curve) [11] [nM] | Binder | binding result (human ICOS) | also measured
no binding (tested: 10 ug/mL) | ~10 | ~100 | 0.121 | no binding (tested: 10 ug/mL) | 0.818 | 7.89 | 0.00746 | 946000 | 1.32 | 0.000306 | 333000 | 2.81 | 0.309 | 0.078 |  |  |  |  | 35E6-HZ1-IgG1-1D (antibody, also called IgG1-1D mutant anti-PD-1 humanized antibody) heavy: QVQLQESGPGLVKPSETLSLTCTVSGYSITSDYWSWIRQPPGKGLEWIGYINYDGDNNYNPSLKSRVTISRDTSKNQFSLKLSSVTAADTAVYYCARGGFDYWGQGTLVTVSSASTKGPSVFPLAPSSKSTSGGTAALGCLVKDYFPEPVTVSWNSGALTSGVHTFPAVLQSSGLYSLSSVVTVPSSSLGTQTYICNVNHKPSNTKVDKRVEPKSCDKTHTCPPCPAPEAAGGPSVFLFPPKPKDTLMISRTPEVTCVVVAVSHEDPEVKFNWYVDGVEVHNAKTKPREEQYNSTYRVVSVLTVLHQDWLNGKEYKCKVSNKALPAPIEKTISKAKGQPREPQVYTLPPSREEMTKNQVSLTCLVKGFYPSDIAVEWESNGQPENNYKTTPPVLDSDGSFFLYSKLTVDKSRWQQGNVFSCSVMHEALHAHYTQKSLSLSPGK light: EIVLTQSPATLSLSPGERATLSCRASESVEYYGTNLMQWYQQKPGQPPRLLIYFASNVASGIPARFSGSGSGTDFTLTISSLEPEDFAVYFCQQSKKVPSTFGQGTKVEIKRTVAAPSVFIFPPSDEQLKSGTASVVCLLNNFYPREAKVQWKVDNALQSGNSQESVTEQDSKDSTYSLSSTLTLSKADYEKHKVYACEVTHQGLSSPVTKSFNRGEC | no binding (tested: 10 µg/mL and 1 µg/mL) | binding result (CD64 protein [4]): no binding
 |  |  |  |  |  |  |  |  |  |  |  |  |  |  | 0.044 | 4.25 | 0.0685 |  | murine antibody 91D5 (antibody, V domains shown, Murine antibody from a hybridoma) VH: EVQLQQSGPELVKPGASVKISCRASGYTFTDYYMNWVKESHGKSLEWIGEINPKYGDTTYNQKFKDKATLTVDKSSSTASVELRSLTSEDSAVYYCAKGIRLFDSWGQGTTVTVSS VL: DIQLTQSPASLSASVGETVTITCRPSGNVHNYFAWYQQKQGKSPQLLVYNAKTLAEGVPSRFSGSGSGTQYSLKINSLQPEDFGTYYCHHYYTAPFTFGSGTKLEIK |  | 
no binding (tested: 10 ug/mL) | ~10 | ~200 | 0.104 | no binding (tested: 10 ug/mL) | 1.32 | 5.33 | 0.00725 | 1.36e+06 | 1.17 | 0.00023 | 384000 | 3.48 | 0.25 | 0.093 |  |  |  |  | 91D5-HZ2-IgG1-1D (antibody, also called IgG1-1D mutant anti-PD-1 humanized antibody) heavy: EVQLVQSGAEVKKPGASVKVSCKASGYTFTDYYMNWVREAPGQGLEWMGEINPKYGDTTYNQKFKDRATLTVDKSTSTAYMELSSLRSDDTAVYYCAKGIRLFDSWGQGTLVTVSSASTKGPSVFPLAPSSKSTSGGTAALGCLVKDYFPEPVTVSWNSGALTSGVHTFPAVLQSSGLYSLSSVVTVPSSSLGTQTYICNVNHKPSNTKVDKRVEPKSCDKTHTCPPCPAPEAAGGPSVFLFPPKPKDTLMISRTPEVTCVVVAVSHEDPEVKFNWYVDGVEVHNAKTKPREEQYNSTYRVVSVLTVLHQDWLNGKEYKCKVSNKALPAPIEKTISKAKGQPREPQVYTLPPSREEMTKNQVSLTCLVKGFYPSDIAVEWESNGQPENNYKTTPPVLDSDGSFFLYSKLTVDKSRWQQGNVFSCSVMHEALHAHYTQKSLSLSPGK light: DIQLTQSPSSLSASVGDRVTITCRPSGNVHNYFAWYQQKPGKSPKLLVYNAKTLAEGVPSRFSGSGSGTDYTLTISSLQPEDFATYYCHHYYTAPFTFGGGTKVEIKRTVAAPSVFIFPPSDEQLKSGTASVVCLLNNFYPREAKVQWKVDNALQSGNSQESVTEQDSKDSTYSLSSTLTLSKADYEKHKVYACEVTHQGLSSPVTKSFNRGEC | no binding (tested: 10 µg/mL and 1 µg/mL) | binding result (CD64 protein [13]): no binding
